Laboratory results as given in article PMC8212047.

Legend:
Test in all cases: SPR
CB6 (human) = target: CB6 (human)
RGN10933 (human) = target: RGN10933 (human)
RGN10987 (human) = target: RGN10987 (human)

Measured: binding relative to WT RBD

RGN10987 (human), sequence (heavy, as listed by the source, chain 1 of 2): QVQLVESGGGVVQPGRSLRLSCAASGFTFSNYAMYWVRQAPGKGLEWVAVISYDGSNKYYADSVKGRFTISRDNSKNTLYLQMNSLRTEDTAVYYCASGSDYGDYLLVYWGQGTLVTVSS
RGN10987 (human), sequence (light, as listed by the source, chain 2 of 2): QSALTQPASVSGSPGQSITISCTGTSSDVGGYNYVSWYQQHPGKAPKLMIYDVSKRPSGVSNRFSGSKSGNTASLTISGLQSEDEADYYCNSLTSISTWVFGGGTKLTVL
RGN10933 (human), sequence (heavy, as listed by the source, chain 1 of 2): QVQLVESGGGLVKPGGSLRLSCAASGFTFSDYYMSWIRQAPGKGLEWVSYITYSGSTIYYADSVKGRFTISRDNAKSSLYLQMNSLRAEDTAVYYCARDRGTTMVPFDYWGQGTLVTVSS
RGN10933 (human), sequence (light, as listed by the source, chain 2 of 2): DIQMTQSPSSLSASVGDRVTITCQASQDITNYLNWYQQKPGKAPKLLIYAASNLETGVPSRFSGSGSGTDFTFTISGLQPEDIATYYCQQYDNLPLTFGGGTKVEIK

RBD A475V-FC fusion protein (from UniProt P0DTC2)
> 50%: CB6 (human) | RGN10933 (human) | RGN10987 (human)

RBD Y505W-FC fusion protein (from UniProt P0DTC2)
> 50%: CB6 (human) | RGN10933 (human) | RGN10987 (human)

RBD T345I-FC fusion protein (from UniProt P0DTC2)
> 50%: CB6 (human) | RGN10933 (human) | RGN10987 (human)
